To fix the notation:
B1: FICO-Aβ1-15 (peptide)
peptide: {FICO}-DAEFRHDSGYEVHHQ
B2: FICO-Aβ6-20 (peptide)
peptide: {FICO}-HDSGYEVHHQKLVFF
B3: FICO-Aβ21-35 (peptide)
peptide: {FICO}-AEDVGSNKGAIIGLM
B4: FICO-Aβ16-30 (peptide)
peptide: {FICO}-KLVFFAEDVGSNKGA
B5: iminobiotinyl-Aβ26-40 (peptide)
peptide: iminobiotinyl-SNKGAIIGLMVGGVV
B6: unmodified Aβ16-20 (peptide)
peptide: H-KLVFF-OH
B7: cholyl-Aβ16-20 (Val18->Thr) (peptide)
peptide: Cholyl-KLTFF
B8: cholyl-Aβ15-19 (peptide)
peptide: Cholyl-QKLVF-OH
SMILES: CC(C)C[C@H](NC(=O)[C@H](CCCCN)NC(=O)[C@H](CCC(N)=O)NC(=O)CC[C@@H](C)[C@H]1CC[C@H]2[C@@H]3[C@H](O)C[C@@H]4C[C@H](O)CC[C@]4(C)[C@H]3C[C@H](O)[C@]12C)C(=O)N[C@H](C(=O)N[C@@H](Cc1ccccc1)C(=O)O)C(C)C
B9: cholyl-Aβ16-19-amide (PPI-321 as printed in Table IV) (peptide)
peptide: Cholyl-KLVF-NH2
SMILES: CC(C)C[C@H](NC(=O)[C@H](CCCCN)NC(=O)CC[C@@H](C)[C@H]1CC[C@H]2[C@@H]3[C@H](O)C[C@@H]4C[C@H](O)CC[C@]4(C)[C@H]3C[C@H](O)[C@]12C)C(=O)N[C@H](C(=O)N[C@@H](Cc1ccccc1)C(N)=O)C(C)C
B10: iminobiotinyl-Aβ16-20 (peptide)
peptide: iminobiotinyl-KLVFF-OH
B11: Cholyl-penta-alanine (peptide)
peptide: Cholyl-AAAAA-OH
SMILES: C[C@H](NC(=O)[C@H](C)NC(=O)[C@H](C)NC(=O)[C@H](C)NC(=O)[C@H](C)NC(=O)CC[C@@H](C)[C@H]1CC[C@H]2[C@@H]3[C@H](O)C[C@@H]4C[C@H](O)CC[C@]4(C)[C@H]3C[C@H](O)[C@]12C)C(=O)O
B12: cholyl-Aβ17-21 (peptide)
peptide: Cholyl-LVFFA-OH
SMILES: CC(C)C[C@H](NC(=O)CC[C@@H](C)[C@H]1CC[C@H]2[C@@H]3[C@H](O)C[C@@H]4C[C@H](O)CC[C@]4(C)[C@H]3C[C@H](O)[C@]12C)C(=O)N[C@H](C(=O)N[C@@H](Cc1ccccc1)C(=O)N[C@@H](Cc1ccccc1)C(=O)N[C@@H](C)C(=O)O)C(C)C
B13: cholyl-Aβ16-20-amide (peptide)
peptide: Cholyl-KLVFF-NH2
B14: cholyl-Aβ16-20 (Phe19->Ala) (peptide)
peptide: Cholyl-KLVAF-OH
SMILES: CC(C)C[C@H](NC(=O)[C@H](CCCCN)NC(=O)CC[C@@H](C)[C@H]1CC[C@H]2[C@@H]3[C@H](O)C[C@@H]4C[C@H](O)CC[C@]4(C)[C@H]3C[C@H](O)[C@]12C)C(=O)N[C@H](C(=O)N[C@@H](C)C(=O)N[C@@H](Cc1ccccc1)C(=O)O)C(C)C
B15: cholyl-Aβ6-10-amide (peptide)
peptide: Cholyl-HDSGY-NH2
SMILES: C[C@H](CCC(=O)N[C@@H](Cc1c[nH]cn1)C(=O)N[C@@H](CC(=O)O)C(=O)N[C@@H](CO)C(=O)NCC(=O)N[C@@H](Cc1ccc(O)cc1)C(N)=O)[C@H]1CC[C@H]2[C@@H]3[C@H](O)C[C@@H]4C[C@H](O)CC[C@]4(C)[C@H]3C[C@H](O)[C@]12C
B16: cholyl-Aβ6-19-amide (PPI-321 as printed in Table III) (peptide)
peptide: Cholyl-HDSGYEVHHQKLVF-NH2
SMILES: CC(C)C[C@H](NC(=O)[C@H](CCCCN)NC(=O)[C@H](CCC(N)=O)NC(=O)[C@H](Cc1c[nH]cn1)NC(=O)[C@H](Cc1c[nH]cn1)NC(=O)[C@@H](NC(=O)[C@H](CCC(=O)O)NC(=O)[C@H](Cc1ccc(O)cc1)NC(=O)CNC(=O)[C@H](CO)NC(=O)[C@H](CC(=O)O)NC(=O)[C@H](Cc1c[nH]cn1)NC(=O)CC[C@@H](C)[C@H]1CC[C@H]2[C@@H]3[C@H](O)C[C@@H]4C[C@H](O)CC[C@]4(C)[C@H]3C[C@H](O)[C@]12C)C(C)C)C(=O)N[C@H](C(=O)N[C@@H](Cc1ccccc1)C(N)=O)C(C)C
B17: cholyl-Aβ7-20 (peptide)
peptide: Cholyl-DSGYEVHHQKLVFF
B18: cholyl-Aβ6-20-amide (peptide)
peptide: Cholyl-HDSGYEVHHQKLVFF-NH2
SMILES: CC(C)C[C@H](NC(=O)[C@H](CCCCN)NC(=O)[C@H](CCC(N)=O)NC(=O)[C@H](Cc1c[nH]cn1)NC(=O)[C@H](Cc1c[nH]cn1)NC(=O)[C@@H](NC(=O)[C@H](CCC(=O)O)NC(=O)[C@H](Cc1ccc(O)cc1)NC(=O)CNC(=O)[C@H](CO)NC(=O)[C@H](CC(=O)O)NC(=O)[C@H](Cc1c[nH]cn1)NC(=O)CC[C@@H](C)[C@H]1CC[C@H]2[C@@H]3[C@H](O)C[C@@H]4C[C@H](O)CC[C@]4(C)[C@H]3C[C@H](O)[C@]12C)C(C)C)C(=O)N[C@H](C(=O)N[C@@H](Cc1ccccc1)C(=O)N[C@@H](Cc1ccccc1)C(N)=O)C(C)C
B19: cholyl-Aβ6-17-amide (peptide)
peptide: Cholyl-HDSGYEVHHQKL-NH2
SMILES: CC(C)C[C@H](NC(=O)[C@H](CCCCN)NC(=O)[C@H](CCC(N)=O)NC(=O)[C@H](Cc1c[nH]cn1)NC(=O)[C@H](Cc1c[nH]cn1)NC(=O)[C@@H](NC(=O)[C@H](CCC(=O)O)NC(=O)[C@H](Cc1ccc(O)cc1)NC(=O)CNC(=O)[C@H](CO)NC(=O)[C@H](CC(=O)O)NC(=O)[C@H](Cc1c[nH]cn1)NC(=O)CC[C@@H](C)[C@H]1CC[C@H]2[C@@H]3[C@H](O)C[C@@H]4C[C@H](O)CC[C@]4(C)[C@H]3C[C@H](O)[C@]12C)C(C)C)C(N)=O
B20: cholyl-Aβ6-14-amide (peptide)
peptide: Cholyl-HDSGYEVHH-NH2
SMILES: CC(C)[C@H](NC(=O)[C@H](CCC(=O)O)NC(=O)[C@H](Cc1ccc(O)cc1)NC(=O)CNC(=O)[C@H](CO)NC(=O)[C@H](CC(=O)O)NC(=O)[C@H](Cc1c[nH]cn1)NC(=O)CC[C@@H](C)[C@H]1CC[C@H]2[C@@H]3[C@H](O)C[C@@H]4C[C@H](O)CC[C@]4(C)[C@H]3C[C@H](O)[C@]12C)C(=O)N[C@@H](Cc1c[nH]cn1)C(=O)N[C@@H](Cc1c[nH]cn1)C(N)=O

Ends that are not written are not given here. * marks the point of attachment. Cholyl = C[C@H](CCC(=O)*)[C@H]1CC[C@H]2[C@@H]3[C@H](O)C[C@@H]4C[C@H](O)CC[C@]4(C)[C@H]3C[C@H](O)[C@]12C; iminobiotinyl = N=C1N[C@H]2[C@H](CS[C@H]2CCCCC(=O)*)N1; FICO = 5-(and 6-)-carboxyfluoresceinyl

The target in one assay is natural β-amyloid peptide β-AP1-40 (human). Kind of assay: cell-based or functional assay.
Sequence of natural β-amyloid peptide β-AP1-40 (human) (peptide, as listed by the source): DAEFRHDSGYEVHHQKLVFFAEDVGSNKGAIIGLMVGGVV
In the case of B1, the “% Inhibition of Plateau; nucleation assay; 100 mole %” value (“% Inhibition of Plateau … 100 mole %” below) was found to be 30% and the “Fold Increase in Lag Time; nucleation assay; 100 mole %” value (“Fold Increase in Lag Time … 100 mole %” below) is ~1 fold.

On to B2, for which the “% Inhibition of Plateau … 100 mole %” value is ~0% and the “Fold Increase in Lag Time … 100 mole %” value is 1.9 fold.

Consider B3, for which the “% Inhibition of Plateau … 100 mole %” value was 25% and the “Fold Increase in Lag Time … 100 mole %” value was 1.2 fold.

Regarding B4, the “% Inhibition of Plateau … 100 mole %” value stood at 59% and the “Fold Increase in Lag Time … 100 mole %” value was found to be 1.6 fold.

Take B5: the “% Inhibition of Plateau … 100 mole %” value was ~0% and the “Fold Increase in Lag Time … 100 mole %” value was determined as 2.3 fold.

For a further assay the target is unchanged. Kind of assay: cell-based or functional assay. The source holds these as a separate data set.
Take B6: the “% Inhibition of Plateau … 100 mole %” value was ~0% and the “Fold Increase in Lag Time … 100 mole %” value is ~1 fold.

B7: the “% Inhibition of Plateau … 100 mole %” value is ~0% and the “Fold Increase in Lag Time … 100 mole %” value is ~1 fold.

B8: the “% Inhibition of Plateau; nucleation assay; 10 mole %” value is ~0%, the “% Inhibition of Plateau … 100 mole %” value is ~0%, the “Fold Increase in Lag Time; nucleation assay; 10 mole %” value worked out at 1.6 fold and the “Fold Increase in Lag Time … 100 mole %” value was found to be 3.1 fold.

On to B9, for which the “% Inhibition of Plateau … 100 mole %” value is ~0% and the “Fold Increase in Lag Time … 100 mole %” value was 1.2 fold.

Regarding B10, the “% Inhibition of Plateau … 100 mole %” value was 86% and the “Fold Increase in Lag Time … 100 mole %” value stood at 1.3 fold.

Take B11: the “% Inhibition of Plateau … 100 mole %” value is ~0% and the “Fold Increase in Lag Time … 100 mole %” value was ~1 fold.

Consider B12, for which the “% Inhibition of Plateau … 100 mole %” value amounted to 100% and the “Fold Increase in Lag Time … 100 mole %” value was > 5 fold.

Regarding B13, the “% Inhibition of Plateau; nucleation assay; 10 mole %” value was ~0%, the “Fold Increase in Lag Time; nucleation assay; 10 mole %” value came to 2.7 fold and the “Fold Increase in Lag Time; nucleation assay; 33 mole %” value (from here on “Fold Increase in Lag Time … 33 mole %”) came out at 5.6 fold.

B14: the “% Inhibition of Plateau … 100 mole %” value is 73% and the “Fold Increase in Lag Time … 100 mole %” value is 2.6 fold.

For a further assay the target is unchanged. Kind of assay: cell-based or functional assay. This is another data set of the same source.
On to B6, for which the “% Iext'n; seeded extension assay; 25 mole %” value (“% Iext'n” below) was determined as 8%, the “% Inucl'n; nucleation assay; 100 mole %” value was 0% and the “ΔLag; nucleation assay; 100 mole %” value came out at 1.1 ratio.

As to B15, the “% Inucl'n; nucleation assay; 100 mole %” value is -18% and the “ΔLag; nucleation assay; 100 mole %” value was 1.1 ratio.

In the case of B7, the “% Iext'n” value was 44%, the “% Inucl'n; nucleation assay; 100 mole %” value was -16% and the “ΔLag; nucleation assay; 100 mole %” value was 1.1 ratio.

Turning to B8, the “% Inucl'n; nucleation assay; 100 mole %” value was -23% and the “ΔLag; nucleation assay; 100 mole %” value worked out at 3.1 ratio.

With B10, the “% Iext'n” value stood at 0%, the “% Inucl'n; nucleation assay; 100 mole %” value worked out at 86% and the “ΔLag; nucleation assay; 100 mole %” value came to 1.3 ratio.

Take B11: the “% Iext'n” value came out at 0%, the “% Inucl'n; nucleation assay; 100 mole %” value is -7% and the “ΔLag; nucleation assay; 100 mole %” value stood at 0.8 ratio.

For B12, the “% Iext'n” value came to 91%, the “% Inucl'n; nucleation assay; 100 mole %” value is 100% and the “ΔLag; nucleation assay; 100 mole %” value was > 5 ratio.

Regarding B13, the “% Iext'n” value is 52%, the “% Inucl'n; nucleation assay; 100 mole %” value turned out to be 70% and the “ΔLag; nucleation assay; 100 mole %” value amounted to 5.4 ratio.

As for B14, the “% Iext'n” value worked out at 31%, the “% Inucl'n; nucleation assay; 100 mole %” value was 73% and the “ΔLag; nucleation assay; 100 mole %” value was 2.6 ratio.

A further assay has the same target. The experiment in a line: cell-based or functional assay. The source holds these as a separate data set.
As to B15, the “% Inhibition of Plateau; nucleation assay; 33 mole %” value (from here on “% Inhibition of Plateau … 33 mole %”) came out at 13% and the “Fold Increase in Lag Time … 33 mole %” value worked out at 1.1 fold.

As to B16, the “% Inhibition of Plateau … 33 mole %” value is ~0% and the “Fold Increase in Lag Time … 33 mole %” value was 1.4 fold.

Consider B17, for which the “% Inhibition of Plateau … 33 mole %” value was ~0%, the “% Inhibition of Plateau … 100 mole %” value amounted to 100%, the “Fold Increase in Lag Time … 33 mole %” value stood at 2 fold and the “Fold Increase in Lag Time … 100 mole %” value is > 4.5 fold.

As to B18, the “% Inhibition of Plateau … 33 mole %” value was ~0% and the “Fold Increase in Lag Time … 33 mole %” value is 1.8 fold.

Take B19: the “% Inhibition of Plateau … 33 mole %” value was ~0% and the “Fold Increase in Lag Time … 33 mole %” value worked out at 1.8 fold.

Turning to B20, the “% Inhibition of Plateau … 33 mole %” value was 29% and the “Fold Increase in Lag Time … 33 mole %” value was determined as 1 fold.

(Values after US7658917 (PRAECIS PHARMACEUTICALS, dated 2010).)
